Measured values as given in the supplement of paper PMC7877785.
± gives the uncertainty stated by the source.

Test: self-splicing fitness, log relative to wild type (ln ratio); higher = more splicing; Tetrahymena group I intron in knt gene, E. coli kanamycin selection, DiMSum; sequences stand for … in CUCUCU…GGAGGGAAAAGUUAUCAGGCAUGCACCUGGUAGCUAGUCUUUAAACCAAUAGAUUGCAUCGGUUUAAAAGGCAAGACCGUCAAAUUGCGGGAAAGGGGUCAACAGCCGUUCAGUACCAAGUCUCAGGGGAAACUUUGAGAUGGCCUUGCAAAGGGUAUGGUAAUAAGCUGACGGACAUGGUCCUAACCACGCAGCCAAGUCCUAAGUCAACAGAUCUUCUGUUGAUAUGGAUGCAGUUCACAGACUAAAUGUCGGUCGGGGAAGAUGUAUUCUUCUCAUAAGAUAUAGUCGGACCUCUCCUUAAUGGGAGCUAGCGGAUGAAGUGAUGCAACACUGGAGCCGCUGGGAACUAAUUUGUAUGCGAAAGUAUAUUGAUUAGUUUUGGAGUACUCGUGGUCG
Method in brief: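 DiMSum derived fitness as the error-weighted combination of fold changes across replicates, kanamycin versus no kanamycin, normalised to wild type. E. coli BL21(DE3) held the library, which randomised all eight P1ex-region intron nucleotides within the knt kanamycin-resistance gene on pET-22b(+). Six replicate transformations grew overnight at 37°C or 30°C on LB agar with or without 25 μg/mL kanamycin, also containing 100 μg/mL carbenicillin, 50 μM IPTG and 0.2% rhamnose, and pooled colonies were amplicon-sequenced on an Illumina HiSeq 2500.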

Sequence	self-splicing fitness (ln) (30 °C)	self-splicing fitness (ln) (37 °C)
UUAUAGCAAUAUUACGCAUA	-2.43 ± 0.29	-0.953 ± 0.18
UUAUAGCAAUAUUACGCGGG	-1.86 ± 0.17	-1.92 ± 0.3
UUAUAGCAAUAUUACGCUAU	-3.51 ± 0.44	-4.04 ± 0.46
UUAUAGCAAUAUUACGCUGG	-1.35 ± 0.14	-0.828 ± 0.12
UUAUAGCAAUAUUACGCUUC	-3.49 ± 0.32	-3.42 ± 0.43
UUAUAGCAAUAUUACGGAGG	-1.68 ± 0.31	-2.37 ± 0.32
UUAUAGCAAUAUUACGGAUA	-2.21 ± 0.32	-0.955 ± 0.19
UUAUAGCAAUAUUACGGGAA	-1.59 ± 0.29	-1.26 ± 0.28
UUAUAGCAAUAUUACGGGCG	-1.4 ± 0.15	-1 ± 0.2
UUAUAGCAAUAUUACGGUCA	-0.871 ± 0.13	-0.305 ± 0.17
UUAUAGCAAUAUUACGGUGG	-0.966 ± 0.11	-0.924 ± 0.12
UUAUAGCAAUAUUACGUAAG	-1.38 ± 0.08	-0.386 ± 0.11
UUAUAGCAAUAUUACGUAUA	-2.29 ± 0.15	-1.42 ± 0.13
UUAUAGCAAUAUUACGUAUG	-1.03 ± 0.12	-0.187 ± 0.15
UUAUAGCAAUAUUACGUGAG	-1.2 ± 0.087	-0.672 ± 0.12
UUAUAGCAAUAUUACGUGGC	-3.14 ± 0.37	-2.45 ± 0.39
UUCAAGCAAUAUUACGAACA	-2.07 ± 0.2	-0.752 ± 0.13
UUCAAGCAAUAUUACGACUC	-1.98 ± 0.24	-0.791 ± 0.22
UUCAAGCAAUAUUACGAGCG	-1.3 ± 0.087	-0.359 ± 0.099
UUCAAGCAAUAUUACGAGGG	-3.56 ± 0.23	-1.91 ± 0.17
UUCAAGCAAUAUUACGAUAC	-2.1 ± 0.17	-2.58 ± 0.48
UUCAAGCAAUAUUACGAUCC	-2.66 ± 0.27	-1.55 ± 0.29
UUCAAGCAAUAUUACGAUCU	-1.59 ± 0.092	-0.996 ± 0.089
UUCAAGCAAUAUUACGAUGU	-2.21 ± 0.13	-1.31 ± 0.16

Sequence	self-splicing fitness (ln) (30 °C)	self-splicing fitness (ln) (37 °C)
UUCAAGCAAUAUUACGCAUG	-2.8 ± 0.13	-1.7 ± 0.16
UUCAAGCAAUAUUACGCUAU	-2.4 ± 0.15	-1.63 ± 0.16
UUCAAGCAAUAUUACGCUCU	-1.37 ± 0.17	0.387 ± 0.21
UUCAAGCAAUAUUACGGACC	-2.45 ± 0.25	-2.97 ± 0.21
UUCAAGCAAUAUUACGGUAG	-0.693 ± 0.096	-0.128 ± 0.13
UUCAAGCAAUAUUACGGUCC	-1.46 ± 0.25	-2.3 ± 0.42
UUCAAGCAAUAUUACGUACA	-0.901 ± 0.11	-0.478 ± 0.13
UUCAAGCAAUAUUACGUAUU	-3.82 ± 0.17	-2.66 ± 0.16
UUCAAGCAAUAUUACGUCUU	–	-3.54 ± 0.33
UUCAAGCAAUAUUACGUGCC	-0.891 ± 0.15	-0.528 ± 0.17
UUCAAGCAAUAUUACGUUCC	–	-1.79 ± 0.34
UUCAAGCAAUAUUACGUUGG	-2.28 ± 0.17	-1.66 ± 0.24
UUCAAGCAAUAUUACGUUUC	-3.02 ± 0.13	-2.25 ± 0.18
UUCCAGCAAUAUUACGAACC	-2.74 ± 0.42	0.108 ± 0.43
UUCCAGCAAUAUUACGAGCA	-1.08 ± 0.098	-0.767 ± 0.13
UUCCAGCAAUAUUACGAUGA	-0.211 ± 0.067	0.0453 ± 0.072
UUCCAGCAAUAUUACGAUUG	-2.03 ± 0.12	-1.47 ± 0.16
UUCCAGCAAUAUUACGCCCU	–	-2.93 ± 0.49
UUCCAGCAAUAUUACGCGAG	-0.566 ± 0.082	-0.29 ± 0.082
UUCCAGCAAUAUUACGCUCA	-0.327 ± 0.068	0.143 ± 0.089
UUCCAGCAAUAUUACGGAAU	-3.81 ± 0.26	-2.77 ± 0.28
UUCCAGCAAUAUUACGGGCG	-0.245 ± 0.081	0.254 ± 0.097
UUCCAGCAAUAUUACGGUAC	-4.17 ± 0.24	-2.6 ± 0.23
UUCCAGCAAUAUUACGUAUG	-3.02 ± 0.13	-1.38 ± 0.14
